The source of these data is patent publication US20240228629A1 (CITY OF HOPE, published 2024).

One assay deals with T1, BSA (bovine, UniProt P02769).
T1 construct: also called bovine serum albumin
The assay can be described thus: ELISA on coated recombinant proteins, title "Titer of purified mAb"; antibody concentration not given. For orientation: ELISA stands for enzyme-linked immunosorbent assay.

The target of assay [1] is T2, D4-IgA1 (extracellular domain IV of human EGFR fused with human IgA1.Fc) (human).
T2 construct: also called EGFR-IgA1; human EGFR-IgA
T2 chain: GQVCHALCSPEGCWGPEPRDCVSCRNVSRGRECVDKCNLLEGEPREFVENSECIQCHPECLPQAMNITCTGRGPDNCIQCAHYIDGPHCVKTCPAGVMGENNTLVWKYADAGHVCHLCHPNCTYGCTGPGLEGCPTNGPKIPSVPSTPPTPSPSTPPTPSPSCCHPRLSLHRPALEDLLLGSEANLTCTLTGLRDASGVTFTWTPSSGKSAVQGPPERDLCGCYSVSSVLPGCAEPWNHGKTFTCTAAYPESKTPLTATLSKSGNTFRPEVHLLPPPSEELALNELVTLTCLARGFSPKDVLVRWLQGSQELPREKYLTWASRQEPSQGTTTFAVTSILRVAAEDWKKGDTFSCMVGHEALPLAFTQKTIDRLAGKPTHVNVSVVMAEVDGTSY
Description: ELISA: EGFR-IgA1 immobilised in microwells, hybridoma culture supernatant, goat anti-mouse IgG.Fc-HRP, OD450.

Assay [2] has as its target T3, EGFR domain IV (human, UniProt P00533 505-645).
T3 construct: Immobilised on a CM5 chip for SPR; also called domain IV of EGFR; EGFR D4
The assay can be described thus: SPR, EGFR domain IV immobilised on CM5 chip, Fab injected. The method, then: EGFR domain IV was immobilized on a CM5 chip at a density of 500 RU through EDC/NHS coupling. […] In another experiment, EGFR domain IV was again immobilized on a CM5 chip at a density of 500 RU through EDC/NHS coupling. […] The samples were injected at concentrations of 300 nM, 100 nM, 30 nM, 10 nM, and 3 nM (FIGS. 15A-15C). The sensorgram curves were subsequently analyzed.
In general terms: Surface plasmon resonance follows binding to a sensor surface in real time, without labels.

The target of assay [3] is T3, EGFR domain IV. Description: SPR, EGFR domain IV immobilised on CM5 chip, IgG injected.
Assay [4] deals with T3, EGFR domain IV. The description is as above. This is another data set of the same source.
In assay [5] the target is T3, EGFR domain IV. Description: SPR, EGFR domain IV immobilised on CM5 chip, IgG injected; Table 18 (second kinetic set, apart from Table 17).
Assay [6] addresses T4, EGFRviii on U87-EGFRviii cells (human, UniProt P00533).
T4 construct: the U87-EGFRviii cells also carry whatever EGFR the parent U87 line carries; a shift on these cells cannot be split between the two forms
The assay can be described thus: flow cytometry on U87-EGFRviii cells, 1, 10, 100 ug/ml, anti-Fc Alexa-647 secondary. The method, then: The cells were detached by trypsin and incubated with 1, 10, or 100 ug/ml EGFR Ab in 2% BSA in PBS at 4° ° C. After 30 minutes, cells were washed with 2% BSA in PBS. […] The cells were analyzed by flow cytometry after washing.

T1 sequence (P02769 25-607 limits assumed): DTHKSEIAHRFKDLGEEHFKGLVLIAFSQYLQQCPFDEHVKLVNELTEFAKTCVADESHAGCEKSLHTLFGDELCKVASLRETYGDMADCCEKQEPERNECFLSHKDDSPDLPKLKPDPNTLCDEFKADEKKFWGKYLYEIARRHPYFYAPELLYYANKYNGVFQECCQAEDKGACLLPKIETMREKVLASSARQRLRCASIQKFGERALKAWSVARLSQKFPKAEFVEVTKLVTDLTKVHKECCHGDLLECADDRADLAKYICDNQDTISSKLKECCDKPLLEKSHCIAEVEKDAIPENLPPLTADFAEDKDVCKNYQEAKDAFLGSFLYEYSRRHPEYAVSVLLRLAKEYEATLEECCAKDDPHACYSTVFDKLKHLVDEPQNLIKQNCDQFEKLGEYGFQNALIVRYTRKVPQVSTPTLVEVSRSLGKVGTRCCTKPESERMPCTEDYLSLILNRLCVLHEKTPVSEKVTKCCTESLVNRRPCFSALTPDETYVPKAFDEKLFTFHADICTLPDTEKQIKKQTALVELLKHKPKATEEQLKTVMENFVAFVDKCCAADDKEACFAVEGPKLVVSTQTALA

B1: 5C8 hybridoma clone antibody (mouse, culture supernatant) (antibody, V domains shown)
VH: EVQLQQSGPELVKTGASVKISCKASGYSFTGYYMHWVKQSHGKSLEWIGYINCYNGAINYNQKFKGKATFTVDTSSSTVYMQFNSLTSEDSAVYYCVRAGIHYDYDEAWFAYWGQGTLVTVSA
VL: QAVVTQESALTTSPGETVTLTCRSSTGPVIIRNYANWVQEKPDHLFTGLIGGTNNRAPGVPARFSGSLIGDKAALTITGAQTEDEAIYFCALWYNNHWVFGGGTKLTVL
notes: Mouse antibody from hybridoma supernatant; also called 5C8 clone; Clone 5C8
For the molecule B1, the binding result with BSA is listed as “no binding”; in assay [1] it was “binds”.

B2: EGFRD4-5C8 Fab (Fab, V domains shown)
VH: B1 VH
VL: B1 VL
notes: Fab of clone 5C8
Consider B2, for which, in the assay with EGFR domain IV [2], the Kd – broadly, a measure of binding affinity in units of concentration – is 170 nM; the koff (usually the first-order rate constant of dissociation) turned out to be 0.0305 s⁻¹; the kon (as a rule, a measure of how fast the partners come together) is 179000 M⁻¹ s⁻¹.

B3: chimeric anti-domain IV EGFR antibody clone 5C8 (EGFRD4-5C8) (antibody, V domains shown)
VH: B1 VH
VL: B1 VL
notes: also called 5C8 IgG; 5C8 mAb
With B3, in the assay with EGFR domain IV [3], the affinity, expressed as Kd, was 0.487 nM; the koff turned out to be 0.000249 s⁻¹; the kon was 512000 M⁻¹ s⁻¹. For the same molecule, in the assay with EGFR domain IV [4], the koff is 0.00013 s⁻¹ and the kon was found to be 604000 M⁻¹ s⁻¹. In addition, binding in the assay with EGFR domain IV [5] was characterised by a dissociation constant (Kd) of 0.214 nM.

B4: EGFRD4-34Ab (antibody, V domains shown)
VH: QIQLVQSGPELKKPGETVKISCKASGYTFTNYGMNWVKQAPGKGLKWMGWINTYTGDPTYADDFKGRFAFSLETSASTAYLQINNLKNEDMATYFCARRISTMITTWFAYWGQGTLVTVSA
VL: DIQMTQSPASLSASVGETVTITCRASENIYSYLAWFQQRQGKSPQLLVYNAKTLTEGVPSRFSGSGSGTQFSLKINSLQPEDFGSYYCQHYQVTPYTFGGGTKLEIK
notes: also called Clone # 34
As to B4, the binding result in assay [6] is “binds”.
